Substitutions are numbered along the chain they refer to. Names and notes keep the numbering of the source.

Assay [1] addresses T1, CD20 (human B lymphocyte-restricted differentiation antigen, Bp35) on human Burkitt lymphoma cells (Raji, Daudi, Ramos) (human) (UniProt P11836).
T1 sequence (looked up): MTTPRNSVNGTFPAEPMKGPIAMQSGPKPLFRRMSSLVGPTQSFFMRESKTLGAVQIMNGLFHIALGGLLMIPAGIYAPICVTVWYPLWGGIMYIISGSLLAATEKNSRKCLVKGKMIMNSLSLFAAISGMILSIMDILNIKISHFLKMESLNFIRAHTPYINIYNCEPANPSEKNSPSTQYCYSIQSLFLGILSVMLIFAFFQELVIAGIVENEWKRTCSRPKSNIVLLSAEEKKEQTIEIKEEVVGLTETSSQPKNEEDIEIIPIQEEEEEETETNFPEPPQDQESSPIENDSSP
The assay is described as follows: cell-based or functional assay.

The target in assay [2] is T2, CD20 (human B lymphocyte-restricted differentiation antigen, Bp35) on human Burkitt lymphoma cells (Raji, … (human, UniProt P11836 1-297)).
T2 construct: whole, on cells; also called cell-surface CD20
T2 sequence (looked up): T1 sequence (looked up)
The assay is described as follows: flow cytometry dissociation of PE-labeled MAb from Raji cells at 37 C without competing veltuzumab-Fab'-NEM. On the procedure: The off-rate was determined by non-linear regression (one phase exponential decay) and P-values were generated by F-test using GraphPad Prism software.
(§1) Cells (Daudi, Raji, or Ramos) in 0.5 mL of CM (phenol red-free RPMI 1640 media supplemented with 10% FBS) at 1×10⁶ cells/mL were incubated with 5 μg of each PE-labeled MAb at room temperature for 30 min, pelleted at 400×g, washed twice with CM, resuspended in 1.5 mL of CM, and split into two 0.75-mL aliquots. […] Subsequent measurements were taken at 30-min intervals. The percent maximal binding, which is the quotient of the MFI at T=X divided by that at T=0, was plotted against time, and the results analyzed by Prism software (GraphPad Software Inc., San Diego, Calif.) to yield the half-life or off-rates.
On the technique in general: Flow cytometry measures light scatter and fluorescence of single cells or particles in a stream.

In assay [3] the target is T2, CD20 (human B lymphocyte-restricted …). The assay is described as follows: saturation binding of 125I-labeled MAb to Raji cells, nonlinear regression / Scatchard, replicate assays. How it is done:
Raji cells (5×10⁵) were incubated with radioiodinated MAbs in an assay volume of 225 μl, using tissue culture media as diluent, for 1 h at 37° C. or room temperature. Cells then were washed twice with PBS containing 1% horse serum, and cell pellets were counted in a gamma counter. The MAbs were titrated at a 2:3 serial dilution starting with approximately 2×10⁶ cpm/2 μg MAb/tube, run in triplicate. Non-specific binding was measured by including replicate unlabeled MAb.

Assay [4] has the same target. The assay is described as follows: flow cytometry dissociation from lymphoma cells, with or without a competitive binder. On the procedure: as §1
The next assay has as its target anti-idiotype antibodies. The assay is described as follows: binding of radioiodinated MAb to anti-idiotype antibodies.
The target of assay [5] is T2, CD20 (human B lymphocyte-restricted …). The assay is described as follows: flow cytometry dissociation of PE-labeled MAb from Daudi, Ramos and Raji cells at 37 C with excess veltuzumab-Fab'-NEM. On the procedure: as §1
The target is the same in assay [6]. As to the kind of experiment: flow cytometry dissociation of PE-labeled MAb from Raji cells at 37 C with excess veltuzumab-Fab'-NEM. How it is done: as §1
For assay [7], the target named is T1, CD20 (human B lymphocyte-restricted differentiation antigen, Bp35) on human Burkitt lymphoma cells (Raji, Daudi, Ramos) (human). The assay is described as follows: flow cytometry dissociation of PE-labeled MAb from Raji cells at 37 C without competing veltuzumab-Fab'-NEM.

The molecule “hMN-14 IgG (labetuzumab), humanized anti-CEACAM5 monoclonal antibody, negative control” showed an ADCC (% lysis) of Daudi cells with PBMCs, negative control MAb in assay [1] of 9.9 % lysis.

B1: rituximab, chimeric anti-CD20 monoclonal antibody (IDEC-c2B8) (antibody, V domains shown)
VH: QVQLQQPGAELVKPGASVKMSCKASGYTFTSYNMHWVKQTPGRGLEWIGAIYPGNGDTSYNQKFKGKATLTADKSSSTAYMQLSSLTSEDSAVYYCARSTYYGGDWYFNVWGQGTTVTVSS
VL: QIVLSQSPAILSASPGEKVTMTCRASSSVSYIHWFQQKPGSSPKPWIYATSNLASGVPVRFSGSGSGTSYSLTISRVEAEDAATYYCQQWTSNPPTFGGGTK
notes: Commercial chimeric antibody with human constant regions; also called Rmab; Rituxan
Turning to B1, the “half-life (dissociation)” value in assay [2] is 1.57 h. For the same molecule, the Kd – broadly, a measure of binding affinity in units of concentration – in assay [3] lay in the range of 6.7 to 8.63 nM.

B2: cA20, chimeric anti-CD20 antibody (antibody, V domains shown)
VH: B1 VH with N109D
VL: DIQLTQSPAILSASPGEKVTMTCRASSSVSYIHWFQQKPGSSPKPWIYATSNLASGVPVRFSGSGSGTSYSLTISRVEAEDAATYYCQQWTSNPPTFGGGTKLEIK
notes: Chimeric antibody: murine variable regions on human constant regions
As for B2, the “fold slower off-rate than rituximab or D101N” value in assay [4] was roughly 2.5 fold.

B3: veltuzumab (hA20), humanized anti-CD20 IgG-kappa monoclonal antibody (antibody, V domains shown)
VH: QVQLQQSGAEVKKPGSSVKVSCKASGYTFTSYNMHWVKQAPGQGLEWIGAIYPGNGDTSYNQKFKGKATLTADESTNTAYMELSSLRSEDTAFYYCARSTYYGGDWYFDVWGQGTTVTVSS
VL: DIQLTQSPSSLSASVGDRVTMTCRASSSVSYIHWFQQKPGKAPKPWIYATSNLASGVPVRFSGSGSGTDYTFTISSLQPEDIATYYCQQWTSNPPTFGGGTKLEIK
notes: also called v-mab; Vmab
For the molecule B3, the “half-life (dissociation)” value in assay [2] is 4.68 h. This molecule also displayed a Kd in assay [3] of 6.23 to 12 nM. For the same molecule, the “fold slower off-rate than rituximab or D101N” value in assay [4] is roughly 2.5 fold. Further, in the assay with anti-idiotype antibodies, the immunoreactivity is greater than 90%. The “fold longer dissociation half-life than rituximab” value in assay [5] amounted to 2.7 fold.

B4: D101N, mutant of veltuzumab with aspartic acid changed to asparagine at Kabat position 101 in CDRH3 (antibody, name in Kabat numbering, V domains shown)
VH: B3 VH with D109N
VL: B3 VL
notes: It has the same CDRs as rituximab and FRs identical to veltuzumab, with the same constant regions as veltuzumab (hA20-pdHL2 vector); also called D101N-hA20
Turning to B4, the “half-life (dissociation)” value in assay [2] came to 0.7 h. Moreover, in assay [6], the “fold faster off-rate than rituximab” value was found to be 2 fold and the “fold faster off-rate than veltuzumab” value was 6 fold.

B5: 1F5, murine anti-CD20 monoclonal antibody (antibody, from another filing, V domains shown)
VH: QVQLRQPGAELVKPGASVKMSCKASGYTFTSYNMHWVKQTPGQGLEWIGAIYPGNGDTSYNQKFKGKATLTADKSSSTAYMQLSSLTSEDSAVYYCARSHYGSNYVDYFDYWGQGTTLTVSS
VL: QIVLSQSPAILSASPGEKVTMTCRASSSLSFMHWYQQKPGSSPKPWIYATSNLASGVPARFSGSGSGTSYSLTISRVEAEDAATYFCHQWSSNPLTFGAGTKLELKR
Consider B5, for which the half-life (dissociation) in assay [7] was 3.25 h.

The values above are taken from patent US20100040541A1 (published 2010).
